The target of the assay is T1, rCRISPA (rCRISP1) (Rattus norvegicus, UniProt P12020).
T1 construct: Native rCRISPA (rCRISP1) protein, purified with DANA present; from tissue; host or cells: rat epididymis
T1 sequence (P12020 20-246): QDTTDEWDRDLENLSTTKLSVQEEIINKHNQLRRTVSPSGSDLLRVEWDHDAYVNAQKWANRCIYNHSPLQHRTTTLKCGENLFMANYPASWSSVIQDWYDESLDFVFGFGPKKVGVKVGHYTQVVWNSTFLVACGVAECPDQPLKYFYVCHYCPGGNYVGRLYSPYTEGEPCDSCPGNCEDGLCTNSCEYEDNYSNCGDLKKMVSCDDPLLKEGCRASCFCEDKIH
The assay can be described thus: Protease activity screen: cleavage of substrate peptides by native rCRISPA (+DANA protocol), measured by fluorescence. The class given is biochemical. The following applies: 5 μM substrate peptide, 1 μg enzyme, 100 mM NaCl, 25 mM Tris-Cl, pH 7.5; fluorescence at ten minute intervals for 130 minutes; FIG. 13. The procedure:
FIG. 13 is a graph showing rCRISPA (rCRISP1) protease activity (assay conditions: 5 μM substrate peptide, 1 μg enzyme, 100 mM NaCl, 25 mM Tris-Cl, pH 7.5). A. Cleaved peptides A04 (RGARARLG), N08 (RKRRAPLA), N12 (AKRAASQI), N17 (RKRRAVLT), B22 (APQRFGKK), B17 (RQRYGKRS), B23 (RVKRYRQS), H03 (RNKRAVQG). B. Cleaved peptides B20 (PQRFGRNT), C16 (RVLGLKAH), J21 (LRNRAQSG), H07 (RVKRQVRS), H11 (RRLLRAIP), N05 (RARRELAP), H01 (RKKRSTKK), O22 (GGVRGPRV), O16 (AATRRQAV), O23 (KNVAMQKG), G24 (RRKRSTRE), A09 (RMRRYADA), M02 (EKQRIIGG), H17 (NGLRADPM). C. Uncleaved peptides L16 (KTPRWGG), N10 (FYRADQPR), B11 (AAGVAPLS), J03 (PQLHSTGG), C01 (GPQGLLGA), K11 (VIPRSGGS), M07 (GLQRALEI), A01 (WQGGRRKF), H02 (RAKRSVHF), A10 (SAARPAPP), M16 (RSRREADL), A05 (SYRKVLGQ), M18 (VHRDMAAR), C23 (RDAQAHPG), M09 (GSQHIRAE), E19 (RLGREGVQ), D06 (ALAEAMKK).
Native rCRISPA (rCRISP1) protein, purified with DANA present (see Example 4), was screened for the ability to cleave 360 unique peptides using the commercially available peptide substrate set (catalog # PrSS-360-75, JPT Peptide Technologies, Springfield, Va.). […] The substrate peptides cleaved by rCRISPA in this assay are represented by blue and green traces noted in FIG. 13. Peptides that were not cleaved by rCRISPA are also noted in FIG. 13.

Consider “KTPRWGG [L16, substrate peptide of the commercial peptide substrate set PrSS-360-75, JPT Peptide Technologies]”, for which the “cleavage of substrate peptide by rCRISPA (rCRISP1) protease activity” value (from here on “cleavage of substrate peptide by rCRISPA”) is given as “Uncleaved”.
For “AKRAASQI [N12, substrate peptide of the commercial peptide substrate set PrSS-360-75, JPT Peptide Technologies]” the value was “Cleaved”; for “SYRKVLGQ [A05, substrate peptide of the commercial peptide substrate set PrSS-360-75, JPT Peptide Technologies]”, “Uncleaved”.
On to “VHRDMAAR [M18, substrate peptide of the commercial peptide substrate set PrSS-360-75, JPT Peptide Technologies]”, for which the “cleavage of substrate peptide by rCRISPA” value was “Uncleaved”.
Turning to “EKQRIIGG [M02, substrate peptide of the commercial peptide substrate set PrSS-360-75, JPT Peptide Technologies]”, the “cleavage of substrate peptide by rCRISPA” value is listed as “Cleaved”.
The same measure for “LRNRAQSG [J21, substrate peptide of the commercial peptide substrate set PrSS-360-75, JPT Peptide Technologies]”: “Cleaved”; for “GGVRGPRV [O22, substrate peptide of the commercial peptide substrate set PrSS-360-75, JPT Peptide Technologies]”: “Cleaved”.
The same measure for “GPQGLLGA [C01, substrate peptide of the commercial peptide substrate set PrSS-360-75, JPT Peptide Technologies]”: “Uncleaved”.
The same measure for “PQRFGRNT [B20, substrate peptide of the commercial peptide substrate set PrSS-360-75, JPT Peptide Technologies]”: “Cleaved”.
“ALAEAMKK [D06, substrate peptide of the commercial peptide substrate set PrSS-360-75, JPT Peptide Technologies]”: the “cleavage of substrate peptide by rCRISPA” value is on record as “Uncleaved”.
Turning to “GSQHIRAE [M09, substrate peptide of the commercial peptide substrate set PrSS-360-75, JPT Peptide Technologies]”, the “cleavage of substrate peptide by rCRISPA” value was “Uncleaved”.
For “WQGGRRKF [A01, substrate peptide of the commercial peptide substrate set PrSS-360-75, JPT Peptide Technologies]” the value was “Uncleaved”; for “RVKRQVRS [H07, substrate peptide of the commercial peptide substrate set PrSS-360-75, JPT Peptide Technologies]”, “Cleaved”.
The same measure for “RKRRAPLA [N08, substrate peptide of the commercial peptide substrate set PrSS-360-75, JPT Peptide Technologies]”: “Cleaved”; for “RMRRYADA [A09, substrate peptide of the commercial peptide substrate set PrSS-360-75, JPT Peptide Technologies]”: “Cleaved”; for “RVLGLKAH [C16, substrate peptide of the commercial peptide substrate set PrSS-360-75, JPT Peptide Technologies]”: “Cleaved”.
For “KNVAMQKG [O23, substrate peptide of the commercial peptide substrate set PrSS-360-75, JPT Peptide Technologies]”, the “cleavage of substrate peptide by rCRISPA” value was “Cleaved”.
The same measure for “RARRELAP [N05, substrate peptide of the commercial peptide substrate set PrSS-360-75, JPT Peptide Technologies]”: “Cleaved”; for “RKKRSTKK [H01, substrate peptide of the commercial peptide substrate set PrSS-360-75, JPT Peptide Technologies]”: “Cleaved”.
As to “RGARARLG [A04, substrate peptide of the commercial peptide substrate set PrSS-360-75, JPT Peptide Technologies]”, the “cleavage of substrate peptide by rCRISPA” value is on record as “Cleaved”.
With “PQLHSTGG [J03, substrate peptide of the commercial peptide substrate set PrSS-360-75, JPT Peptide Technologies]”, the “cleavage of substrate peptide by rCRISPA” value was “Uncleaved”.
In the case of “RLGREGVQ [E19, substrate peptide of the commercial peptide substrate set PrSS-360-75, JPT Peptide Technologies]”, the “cleavage of substrate peptide by rCRISPA” value is reported as “Uncleaved”.
The same measure for “FYRADQPR [N10, substrate peptide of the commercial peptide substrate set PrSS-360-75, JPT Peptide Technologies]”: “Uncleaved”.
For “RRLLRAIP [H11, substrate peptide of the commercial peptide substrate set PrSS-360-75, JPT Peptide Technologies]”, the “cleavage of substrate peptide by rCRISPA” value is given as “Cleaved”.
The same measure for “RDAQAHPG [C23, substrate peptide of the commercial peptide substrate set PrSS-360-75, JPT Peptide Technologies]”: “Uncleaved”.
On to “NGLRADPM [H17, substrate peptide of the commercial peptide substrate set PrSS-360-75, JPT Peptide Technologies]”, for which the “cleavage of substrate peptide by rCRISPA” value is recorded as “Cleaved”.
For “VIPRSGGS [K11, substrate peptide of the commercial peptide substrate set PrSS-360-75, JPT Peptide Technologies]” the value was “Uncleaved”; for “RNKRAVQG [H03, substrate peptide of the commercial peptide substrate set PrSS-360-75, JPT Peptide Technologies]”, “Cleaved”.
For “RQRYGKRS [B17, substrate peptide of the commercial peptide substrate set PrSS-360-75, JPT Peptide Technologies]” the value was “Cleaved”; for “SAARPAPP [A10, substrate peptide of the commercial peptide substrate set PrSS-360-75, JPT Peptide Technologies]”, “Uncleaved”; for “APQRFGKK [B22, substrate peptide of the commercial peptide substrate set PrSS-360-75, JPT Peptide Technologies]”, “Cleaved”.
On to “RAKRSVHF [H02, substrate peptide of the commercial peptide substrate set PrSS-360-75, JPT Peptide Technologies]”, for which the “cleavage of substrate peptide by rCRISPA” value is reported as “Uncleaved”.
For “AATRRQAV [O16, substrate peptide of the commercial peptide substrate set PrSS-360-75, JPT Peptide Technologies]” the value was “Cleaved”; for “RSRREADL [M16, substrate peptide of the commercial peptide substrate set PrSS-360-75, JPT Peptide Technologies]”, “Uncleaved”.
For “AAGVAPLS [B11, substrate peptide of the commercial peptide substrate set PrSS-360-75, JPT Peptide Technologies]” the value was “Uncleaved”.

For the origin of these results see patent US20060275803A1, “Rat and mouse members of the CRISP family of genes” (Wyeth, priority 2005, published 2006).
